Measured values reported in paper PMC11810782.

Target: GFP–TGN46 (UniProt O43493)
Experiment: single-molecule GFP step-photobleaching by TIRF (NativeNanoBleach); ChloroSMA60-extracted total membrane of cells expressing GFP–TGN46 passed over glass slides with streptavidin and biotinylated GFP nanobody; discs captured and GFP bleaching steps counted; 1,000–1,500 particles for each biological replicate, corrected for GFP maturation efficiency

GFP–TGN46, O43493 22-437 (natural protein; other documents disagree on this pair), sequence (O43493 22-437): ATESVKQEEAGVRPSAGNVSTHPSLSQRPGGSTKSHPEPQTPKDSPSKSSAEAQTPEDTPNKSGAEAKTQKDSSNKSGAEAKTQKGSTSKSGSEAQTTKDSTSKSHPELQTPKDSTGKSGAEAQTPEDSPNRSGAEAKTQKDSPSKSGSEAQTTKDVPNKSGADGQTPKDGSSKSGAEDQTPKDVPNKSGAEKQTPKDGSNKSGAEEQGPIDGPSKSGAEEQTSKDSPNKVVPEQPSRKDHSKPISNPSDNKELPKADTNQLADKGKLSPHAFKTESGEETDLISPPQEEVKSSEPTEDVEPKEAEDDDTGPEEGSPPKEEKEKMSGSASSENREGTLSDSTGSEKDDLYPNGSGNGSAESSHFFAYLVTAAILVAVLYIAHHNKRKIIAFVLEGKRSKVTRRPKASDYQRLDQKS

GFP–TGN46, O43493 22-437 (natural protein; other documents disagree on this pair)
stoichiometry N: 1 to 4
